Substrate in assay [1]: F protein of RSV B-wash (strain 18537) (respiratory syncytial virus B, strain 18537) (UniProt P13843)
Nature of the assay: cell-based or functional assay.

Substrate in assay [2]: F protein of RSV B-1 (respiratory syncytial virus B-1) (UniProt O36634)
The experiment in a line: cell-based or functional assay.

We go through one molecule from US20140363427A1.

Chain of F protein of RSV B-1 (respiratory syncytial virus B-1) (O36634 26-574): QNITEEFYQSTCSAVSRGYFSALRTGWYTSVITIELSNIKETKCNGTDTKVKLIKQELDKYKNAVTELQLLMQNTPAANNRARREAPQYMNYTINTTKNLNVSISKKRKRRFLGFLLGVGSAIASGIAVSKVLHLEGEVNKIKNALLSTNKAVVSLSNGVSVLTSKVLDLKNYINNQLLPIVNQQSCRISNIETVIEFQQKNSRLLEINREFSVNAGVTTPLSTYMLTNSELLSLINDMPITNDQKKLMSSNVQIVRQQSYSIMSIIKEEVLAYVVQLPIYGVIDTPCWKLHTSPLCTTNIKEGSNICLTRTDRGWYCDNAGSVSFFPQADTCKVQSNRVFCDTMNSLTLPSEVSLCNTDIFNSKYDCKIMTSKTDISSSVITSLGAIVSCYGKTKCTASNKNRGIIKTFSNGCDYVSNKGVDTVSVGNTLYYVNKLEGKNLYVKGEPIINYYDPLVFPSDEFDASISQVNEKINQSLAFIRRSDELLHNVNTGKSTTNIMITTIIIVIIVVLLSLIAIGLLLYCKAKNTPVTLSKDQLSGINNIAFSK
Chain of F protein of RSV B-wash (strain 18537) (respiratory syncytial virus B, strain 18537) (P13843 26-574): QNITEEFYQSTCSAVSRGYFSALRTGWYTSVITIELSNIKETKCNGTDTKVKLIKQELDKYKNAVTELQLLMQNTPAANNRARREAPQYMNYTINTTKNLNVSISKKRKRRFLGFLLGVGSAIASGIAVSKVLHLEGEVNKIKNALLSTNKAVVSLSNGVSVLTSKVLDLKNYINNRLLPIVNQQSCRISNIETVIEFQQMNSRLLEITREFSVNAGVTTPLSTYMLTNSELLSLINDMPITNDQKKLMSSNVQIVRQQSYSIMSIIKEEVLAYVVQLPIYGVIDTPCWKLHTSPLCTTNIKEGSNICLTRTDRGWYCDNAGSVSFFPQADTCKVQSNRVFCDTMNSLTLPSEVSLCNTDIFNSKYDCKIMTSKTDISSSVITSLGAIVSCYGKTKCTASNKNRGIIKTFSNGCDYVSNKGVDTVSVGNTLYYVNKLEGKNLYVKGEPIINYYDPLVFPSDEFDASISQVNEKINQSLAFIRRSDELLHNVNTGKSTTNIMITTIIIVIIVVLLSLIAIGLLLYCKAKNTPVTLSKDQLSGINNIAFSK

B1: IgG form of 90D3 (antibody, V domains shown)
VH: QVQLVESGGGLVKPGGSLRLSCVGSGFTLKNYEMNWVRQAPGQGLQYISYISSSGNVVKYVDSVQGRFTISRDNAGNSLYLQMNNLRAEDTATYYCVRGFSIDKYDSSVDEYWGQGIAVTVSS
VL: AIRLTQSPSSLSASVGDRVSITCRASQSISNFLNWYQQKPGRAPKLLISAASSLQGGVPSRFSGSGSGTDFTLTISSLQPEDFATYYCQQTYISLYTFGQGTKLEIKR
As to B1, in assay [1], the ED50, plaque reduction, RSV B/wash was 1.4 nM. For the same molecule, the ED50, plaque reduction, RSV B-1 in assay [2] stood at 1.4 nM.
